Drawing on PMC5570134, this text covers Kd for 2 molecules.

This series addresses FUS RRM (UniProt P35637 267-373). The experiment in a line: EMSA. In general terms: A gel shift assay detects complexes by their altered migration in electrophoresis.

Chain of FUS RRM (P35637 267-373): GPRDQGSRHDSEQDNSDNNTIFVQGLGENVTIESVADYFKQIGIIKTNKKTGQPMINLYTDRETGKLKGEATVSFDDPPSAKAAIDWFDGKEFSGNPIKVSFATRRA

B1: Poly-A (ssRNA)
RNA: AAAAAAAAAAAAAAAAAAAAAAAAAAAAAAAAAAAAAAAA
The molecule B1 yielded a Kd of 45 ± 2 µM.

B2: Sc1 (structured_RNA)
RNA: GCUGCGGUGUGGAAGGAGUGGCUGGGUUGCGCAGG
As to B2, binding was put at a Kd of 48 ± 3 µM.

A word on the Kd: it is the free concentration of one partner at which half of the binding sites on the other are occupied at equilibrium, for simple one-to-one binding. Higher therefore signals a looser complex.
